Data taken from PMC6794382.

Target: Drosophila melanogaster imaginal morphogenesis protein-late 2 protein (Imp-L2) (Drosophila melanogaster) (UniProt Q09024)
Assay: cross-linking; Sulfo-SDA-modified ligand (about 100 μg, 10–20 nmol) incubated with recombinant Imp-L2 (76 μg, about 3 nmol) overnight at 4°C, irradiated at 365 nm for 5 min; SDS-PAGE, western blot with anti-IGF-1, tryptic digest of the excised band and LC-MS/MS (Links, StavroX)

Chain of UniProt Q09024 (Q09024 26-267): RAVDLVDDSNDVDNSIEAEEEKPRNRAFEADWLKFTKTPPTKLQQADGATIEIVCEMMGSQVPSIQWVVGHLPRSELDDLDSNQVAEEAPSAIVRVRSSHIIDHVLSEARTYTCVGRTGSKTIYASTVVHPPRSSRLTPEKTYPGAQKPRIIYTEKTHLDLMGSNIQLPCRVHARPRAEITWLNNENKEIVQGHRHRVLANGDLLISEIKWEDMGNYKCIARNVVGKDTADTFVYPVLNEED

percent of Imp-L2 crosslinked: 10 to 20%
Substance: des(63-70)-IGF-1 (human IGF-1 lacking the C-terminal D domain amino acids PLKPAKSA, with an additional N-terminal Gly-1) (ligand)
